{
  "source": "paper PMC2188260",
  "assay_in_all_cases": "co-IP",
  "key": {"[1]": {"molecular_target": "gelsolin of rabbit lung macrophages (rabbit (endogenous in lung macrophages))"}, "[2]": {"molecular_target": "gelsolin of rabbit lung macrophages (rabbit (endogenous in lung macrophages))", "remark": "listed apart in the source"}, "[3]": {"molecular_target": "gelsolin of rabbit lung macrophages (rabbit (endogenous in lung macrophages))", "remark": "listed apart in the source"}, "[4]": {"molecular_target": "human plasma gelsolin (human) (UniProt P06396)", "sequence (P06396 28-782)": "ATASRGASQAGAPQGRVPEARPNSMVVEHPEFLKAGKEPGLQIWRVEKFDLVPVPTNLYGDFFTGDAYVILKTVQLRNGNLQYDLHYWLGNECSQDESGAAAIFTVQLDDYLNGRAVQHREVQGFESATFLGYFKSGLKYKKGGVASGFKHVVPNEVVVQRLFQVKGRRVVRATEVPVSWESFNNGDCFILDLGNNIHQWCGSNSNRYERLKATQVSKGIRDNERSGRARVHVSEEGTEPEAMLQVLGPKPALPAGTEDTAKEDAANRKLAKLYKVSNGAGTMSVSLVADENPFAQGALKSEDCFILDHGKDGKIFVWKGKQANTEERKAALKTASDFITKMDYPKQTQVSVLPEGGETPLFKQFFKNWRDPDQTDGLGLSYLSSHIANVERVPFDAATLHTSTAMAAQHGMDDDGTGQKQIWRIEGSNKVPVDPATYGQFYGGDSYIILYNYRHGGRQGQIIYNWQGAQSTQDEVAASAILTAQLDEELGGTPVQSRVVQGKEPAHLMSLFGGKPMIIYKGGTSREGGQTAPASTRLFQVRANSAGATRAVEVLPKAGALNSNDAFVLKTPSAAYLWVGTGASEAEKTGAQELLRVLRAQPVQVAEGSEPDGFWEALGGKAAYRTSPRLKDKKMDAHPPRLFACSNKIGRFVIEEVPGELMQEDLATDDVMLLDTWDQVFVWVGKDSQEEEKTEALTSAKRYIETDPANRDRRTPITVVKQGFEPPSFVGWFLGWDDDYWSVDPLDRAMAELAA"}},
  "note": "Read-outs that look alike come from different tables or passages of the source.",
  "data": [
    {"substance": "actin of rabbit lung macrophages (from UniProt P29751 1-375) (natural protein)", "values": [
      {"measurement": "molar ratio of actin to gelsolin on the beads (actin per gelsolin)", "setting": "[1]", "value": 4},
      {"measurement": "molar ratio of actin to gelsolin on the beads (actin per gelsolin)", "setting": "[2]", "value": 1},
      {"measurement": "percent of gelsolin complexed with actin", "setting": "[2]", "value": 100, "unit": "%"},
      {"measurement": "molar ratio of actin to gelsolin on the beads (actin per gelsolin)", "setting": "[3]", "value": 0.5},
      {"measurement": "percent of gelsolin complexed with actin", "setting": "[3]", "value": 50, "unit": "%"},
      {"measurement": "percent of gelsolin in the EGTA-resistant complex (cells in suspension, 0 min)", "setting": "[3]", "value": 20, "unit": "%"},
      {"measurement": "percent of gelsolin in the EGTA-resistant complex (cells in suspension, 30 min)", "setting": "[3]", "value": 90, "unit": "%"},
      {"measurement": "percent of total gelsolin complexed to actin (1 uM ionomycin, 30 s)", "setting": "[3]", "value": 80, "unit": "%"},
      {"measurement": "percent of total gelsolin complexed to actin (before ionomycin)", "setting": "[3]", "value": 50, "unit": "%"},
      {"measurement": "percentage of gelsolin in an EGTA-resistant complex (DMSO, experiment 1)", "setting": "[3]", "value": 32, "unit": "%"},
      {"measurement": "percentage of gelsolin in an EGTA-resistant complex (DMSO, experiment 2)", "setting": "[3]", "value": 34, "unit": "%"},
      {"measurement": "percentage of gelsolin in an EGTA-resistant complex (DMSO, experiment 3)", "setting": "[3]", "value": 51, "unit": "%"},
      {"measurement": "percentage of gelsolin in an EGTA-resistant complex (DMSO, experiment 4)", "setting": "[3]", "value": 35, "unit": "%"},
      {"measurement": "percentage of gelsolin in an EGTA-resistant complex (DMSO, mean value)", "setting": "[3]", "value": 38, "unit": "%"},
      {"measurement": "percentage of gelsolin in an EGTA-resistant complex (FMLP, experiment 1)", "setting": "[3]", "value": 23, "unit": "%"},
      {"measurement": "percentage of gelsolin in an EGTA-resistant complex (FMLP, experiment 2)", "setting": "[3]", "value": 24, "unit": "%"},
      {"measurement": "percentage of gelsolin in an EGTA-resistant complex (FMLP, experiment 3)", "setting": "[3]", "value": 25, "unit": "%"},
      {"measurement": "percentage of gelsolin in an EGTA-resistant complex (FMLP, experiment 4)", "setting": "[3]", "value": 26, "unit": "%"},
      {"measurement": "percentage of gelsolin in an EGTA-resistant complex (FMLP, mean value)", "setting": "[3]", "value": 25, "unit": "%"},
      {"measurement": "percentage of gelsolin in an EGTA-resistant complex (no addition, experiment 1)", "setting": "[3]", "value": 43, "unit": "%"},
      {"measurement": "percentage of gelsolin in an EGTA-resistant complex (no addition, experiment 2)", "setting": "[3]", "value": 40, "unit": "%"},
      {"measurement": "percentage of gelsolin in an EGTA-resistant complex (no addition, experiment 3)", "setting": "[3]", "value": 51, "unit": "%"},
      {"measurement": "percentage of gelsolin in an EGTA-resistant complex (no addition, experiment 4)", "setting": "[3]", "value": 47, "unit": "%"},
      {"measurement": "percentage of gelsolin in an EGTA-resistant complex (no addition, mean value)", "setting": "[3]", "value": 45, "unit": "%"}
    ]},
    {"substance": "rabbit skeletal muscle actin (from UniProt P68135 1-377) (natural protein)", "values": [
      {"measurement": "stoichiometry N (actin per gelsolin)", "setting": "[4]", "value": 1}
    ]}
  ]
}
